These are literature values, as cited in PMC4203807.

The target in this series is clathrin heavy chain N-terminal domain (Rattus norvegicus) (UniProt P11442).

pKd: −log10 of the molar value.

Sequence of UniProt P11442 (P11442 1-363): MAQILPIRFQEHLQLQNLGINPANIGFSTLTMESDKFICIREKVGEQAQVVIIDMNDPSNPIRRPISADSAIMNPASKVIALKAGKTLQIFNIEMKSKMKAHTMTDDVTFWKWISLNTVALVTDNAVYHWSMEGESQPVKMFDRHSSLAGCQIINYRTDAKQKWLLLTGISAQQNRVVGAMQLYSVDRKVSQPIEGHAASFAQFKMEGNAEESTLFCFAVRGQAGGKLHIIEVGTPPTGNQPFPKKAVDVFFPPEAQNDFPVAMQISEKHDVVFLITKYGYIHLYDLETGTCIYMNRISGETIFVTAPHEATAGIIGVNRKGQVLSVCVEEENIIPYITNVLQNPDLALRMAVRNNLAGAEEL

For AP180 623-680 (from UniProt Q05140), the negative logarithm of the Kd (pKd) (commonly the negative decadic logarithm of the Kd, by convention in mol/L) is 3.60.
